Results on 1 molecule are retold here after publication PMC9405973, “Altered Conformational Landscape upon Sensing Guanine Nucleotides in a Disease Mutant of Elongation Factor-like 1 (EFL1) GTPase” (Biomolecules, 2022).

Data set [1] in a line: Enzyme kinetics of GTP hydrolysis (PNP coupled assay, Michaelis–Menten). To be noted: isolated enzyme. The class given is biochemical, Saccharomyces cerevisiae. Here is the method:
(§1) Finally, we measured the enzyme kinetics of mutant Efl1 R1086Q as an isolated enzyme and bound to Sdo1 using an enzymatic coupled assay with a purine nucleoside phosphorylase (PNP) enzyme. This analysis was extended to another disease mutation (EFL1 M882K) also located in domain IV of the GTPase using the equivalent yeast variant, Efl1 L910K [17]. The Km and kcat kinetic parameters were calculated using non-linear regression assuming a Michaelis–Menten model (Supplementary Table S1). […] The catalytic constant for mutant R1086Q and the wild-type enzyme consisted of 0.67 min^−1, and it was 0.58 min^−1 for mutant Efl1 L910K. […] In line with the proposed role of Sdo1 as a guanine exchange factor of Efl1, previous results have shown that the interaction of wild-type Efl1 with Sdo1 impacted its Km for GTP, decreasing its value 2–3-fold. The Km values for the complexes formed between Sdo1 and Efl1 mutants decreased by half with respect to their cognate-free counterpart and differed from each other. […] The measured Km value comprises all the microscopic rate constants of the individual reactions occurring in the enzyme, which include the binding to the substrate and product and the corresponding conformational changes.
Hydrolysis of GTP was measured using the Enzchek Phosphate Assay kit (Molecular Probes) as described by Webb. Standard reactions consisted of 100 µL containing 6 µM of Efl1 R1086Q and Efl1 L910K, 0.3 mM MESG, 1.0 U purine nucleoside phosphorylase (PNP) and the indicated amounts of GTP. Measurements done in the presence of effector protein contained 25 µM of Sdo1.
The reaction buffer consisted of 50 mM HEPES -KOH pH 7.5, 150 mM NaCl, 5 mM MgCl2.
Reactions were initiated and the GTPase was added after 3 min. Time courses were followed by recording the change in absorbance at 360 nm in a Cary 60 UV -Vis spectrophotometer (Agilent Technologies). Background absorbance was recorded prior to the addition of the GTPase and subtracted from the sample signals. The slope of the measured time courses corresponded to the GTP hydrolysis rate. The concentration of releas ed phosphate was estimated using a molar absorption coefficient at 360 nm of 14,386 M -1 cm-1 previously described in [2]. Data were analysed by nonlinear regression to the M ichaelis-Menten equation with the program Origin Version 5.0 (OriginLab, Co., Northampton, MA). […]
M HEPES-KOH pH 7.4, 2.5 mM magnesium acetate, 50 mM sucrose, 2 mM DTT, 0.1 mM PMSF, 0.1 mM benzamidine, 8 mM putrescine, 1 mM spermidine. […]
Dilution at the end of each titration was no longer than 2.5% of the initial volume. Data were corrected for the background signal by subtracting the fluorescence of the same ligand concentration without the GTPase in the reaction mixture.
(§2) Maximum emission at 440 nm was replotted as a function of nucleotide concentration and analysed

Data set [2] has as its system Tif6 bound to 60S subunits. The data set can be described thus: Tif6 release assay with purified yeast components. The class given is biochemical, Saccharomyces cerevisiae. To be noted: 50 nM Efl1 variant, 50 nM Sdo1, 100 µM GTP, 30 °C, 10 min. Here is the method: The release of Tif6 (yeast orthologue of eIF6) was performed as previously described in [3, 15]. Reaction mixtures contained 10 nM 60S subunits, 40 nM Tif6, 50 nM Efl1 variant, 50 nM Sdo1, and 100 µM GTP in buffer of 10 mM Tris-HCl at pH 7.4, 75 mM KCl, and 1.5 mM MgCl2 supplemented with RNAse inhibitors (Promega, Madison, WI, USA) and protease inhibitors free of EDTA (GoldBio, St. Louis, MO, USA). GTP was omitted in the negative control, and 50 mM EDTA was added as the positive control to disassemble the 60S ribosomal subunits. Reaction mixtures of 100 µL were incubated at 30 °C for 10 min and added on top of 150 µL of a 30% sucrose cushion prepared in the same buffer. Samples were centrifuged at 476,000× g for 30 min in an Optima tabletop MX ultracentrifuge with a TLA-100 rotor. The top 200 µL (free fraction) was recovered, and the remaining 50 µL was resuspended in 150 µL of the same buffer. Samples were precipitated with 30% trichloroacetic acid, electrophoresed in 10% Tris-glycine SDS-PAGE, transferred to a PVDF membrane, and immunoblotted with antibodies anti-eIF6 (PA531066; Thermo Scientific; dilution 1:3000) and anti-uL3 (OAAB09713; Aviva Systems Biology, San Diego, CA, USA; dilution 1:500) overnight at 4 °C. […] Signals were quantified using programme Image J version 1.8.0. […]

Details of data set [3]: method as in PMID 25991726, PMID 30780079, PMID 23831625. To be noted: wild-type Efl1; cited from earlier work.
Substrate in data set [4]: Nc1nc2c(ncn2[C@@H]2O[C@H](COP(=O)(O)OP(=O)(O)OP(=O)(O)O)[C@@H](O)[C@H]2O)c(=O)[nH]1
The data set can be described thus: GTP hydrolysis by PNP-coupled Enzchek phosphate assay (MESG, 360 nm), pH 7.5, 5 mM MgCl2, 6 µM Efl1 alone, Michaelis-Menten fit. The class given is biochemical. To be noted: 25.0 °C. Here is the method:
as §1
Hydrolysis of GTP was measured using the Enzchek Phosphate Assay kit (Molecular Probes) as described by Webb. […]
Reactions were initiated and the GTPase was added after 3 min. Time courses were followed by recording the change in absorbance at 360 nm in a Cary 60 UV -Vis spectrophotometer (Agilent Technologies). Background absorbance was recorded prior to the addition of the GTPase and subtracted from the sample signals. The slope of the measured time courses corresponded to the GTP hydrolysis rate. […] Data were analysed by nonlinear regression to the M ichaelis-Menten equation with the program Origin Version 5.0 (OriginLab, Co., Northampton, MA). […]
as §2

B1: Efl1 wild type (Saccharomyces cerevisiae S288C) (protein)
chain: MPRVESETYKRLQNDPSCIRNICIVAHVDHGKTSLSDSLLASNGIISQRLAGKIRFLDARPDEQLRGITMESSAISLYFRVLRKQEGSDEPLVSEHLVNLIDSPGHIDFSSEVSAASRLCDGAVVLVDVVEGVCSQTVTVLRQCWTEKLKPILVLNKIDRLITELQLTPQEAYIHLSKVIEQVNSVIGSFFANERQLDDLFWREQLEKNENAEYIEKDDSGIYFNPTDNNVIFASAIDGWGFNIGQLAKFYEQKLGAKRENLQKVLWGDFYMDPKTKKIINNKGLKGRSLKPLFTSLILENIWKIYQNIITSRDSEMVEKIAKTLNIKLLARDLRSKDDKQLLRTIMGQWLPVSTAVLLTVIEKLPSPLESQTDRLNTILVSESDTAAMDPRLLKAMKTCDKEGPVSAYVSKMLSIPREELPVESKRIASSDELMERSRKAREEALNAAKHAGMVENMAMMDLNDNSKNTSDLYKRAKDTVMTPEVGEQTKPKPSRNNDVFCVVSEPSSALDLEFEYEGEDDSDSQDNFGLDFVPTDIDPNDPLSSMFEYEEEDPLLESIKQISEDVNDEVDDIFDEKEECLVAFARIYSGTLRVGQEISVLGPKYDPKCPEEHIETAIITHLYLFMGKELVPLDVCPSGNIVGIRGLAGKVLKSGTLIEKGVQGVNLAGVNFHFTPIVRVAVEPANPVEMSKLVRGLKLLDQADPCVHTYVENTGEHILCTAGELHLERCLKDLTERFAGIEITHSEPAIPYRETFLSASDMNPPQNSQLGRGVHELLLSQYKITFRTFPLSGKVTDFLSQHQNSIKNILKTSTSSMDPVIESTGSSFLDKKSLLVAFEEVINQEEKSRELLSGFKVKLAGFGPSRVGCNILLSQDNLLGSLFEGTPAAFEYSDSIKNGFQLAVSEGPLANEPVQGMCVLVESVHKMSQDEIESIEDPRYQQHIVDLSGRLITSTRDAIHEAFLDWSPRIMWAIYSCDIQTSVDVLGKVYAVILQRHGKIISEEMKEGTPFFQIEAHVPVVEAFGLSEDIRKRTSGAAQPQLVFSGFECIDLDPFWVPTTEEELEELGDTADRENIARKHMNAIRRRKGLFIEEKVVENAEKQRTLKKN
notes: recombinantly expressed in S. cerevisiae; isolated GTPase
By kcat is commonly meant the maximal rate divided by the concentration of active sites. By Km is commonly meant the concentration of substrate that gives half-maximal velocity. On to B1, for which the kcat in data set [1] was found to be 0.0112 s⁻¹. Also, the “release of Tif6 from the 60S subunit (distribution of Tif6 in free and bound fraction, immunoblot)” value in data set [2] is “Tif6 was enriched in the free fraction”. In addition, the “fold decrease of Km for GTP upon interaction with Sdo1” value in data set [3] was 2–3 fold. Besides, in data set [4], the Km was determined as 155 µM.
